Source: patent US20240101959A1, “USE OF IL-2R-BETA-GAMMA AGONIST PEPTIDES IN CELL MANUFACTURING” (MEDIKINE, INC., priority 2022, published 2024)
Read-outs that look alike come from different tables or passages of the source. Values belong to the binder of their own block, whether it stands above or below them. Positions of bridges follow the written chain, without caps; N, C: chain ends. No end group written: not given here.

Key:
[1] = target: T1, hu-IL-2Rγc subunit (human), P31785; experiment: phage ELISA competition assay
T1 chain: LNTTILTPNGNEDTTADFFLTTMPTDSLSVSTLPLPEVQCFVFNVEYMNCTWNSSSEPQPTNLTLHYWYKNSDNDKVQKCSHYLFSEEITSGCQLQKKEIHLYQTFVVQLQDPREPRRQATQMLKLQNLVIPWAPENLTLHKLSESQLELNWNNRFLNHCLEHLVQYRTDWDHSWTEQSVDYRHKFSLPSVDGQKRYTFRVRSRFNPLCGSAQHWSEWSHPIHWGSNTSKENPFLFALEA

[2] = target: T1, hu-IL-2Rγc subunit (human), P31785
hu-IL-2Rβ subunit = target: T2, hu-IL-2Rβ subunit (human, UniProt P14784 27-240, limits assumed); experiment: phage ELISA competition assay
T2 construct: also called human interleukin-2 receptor subunit β; CD122
T2 sequence (looked up): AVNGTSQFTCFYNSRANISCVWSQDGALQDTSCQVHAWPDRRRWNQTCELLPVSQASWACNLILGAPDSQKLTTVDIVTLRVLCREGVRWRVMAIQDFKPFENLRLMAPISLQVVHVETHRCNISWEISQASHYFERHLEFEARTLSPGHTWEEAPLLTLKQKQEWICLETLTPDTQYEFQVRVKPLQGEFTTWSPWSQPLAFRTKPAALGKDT

IC50 [1]: < 10 µM
IC50 [2]: < 100 µM
B1: SEQ ID NO 655 (peptide)
peptide: GQGREVVVCHDWYGVELCWQ
modifications: not checked

IC50 (hu-IL-2Rβ subunit): < 100 µM
B2: SEQ ID NO 123 (peptide)
peptide: HASWLPCWLAQLGELCDLEPNP

IC50 (hu-IL-2Rβ subunit): < 100 µM
B3: SEQ ID NO 145 (peptide)
peptide: QGPVRLWYPCWMAQLGELCDLD

IC50 (hu-IL-2Rβ subunit): < 100 µM
B4: SEQ ID NO 152 (peptide)
peptide: GEAWYPCWLARLGELCDMDPRV

IC50 (hu-IL-2Rβ subunit): < 100 µM
B5: SEQ ID NO 156 (peptide)
peptide: WWPCWMAQLGDLCDLEETSGGT

IC50 (hu-IL-2Rβ subunit): < 100 µM
B6: SEQ ID NO 151 (peptide)
peptide: YRGWLPCWRAKLGDLCDLGQPM
modifications: disulfide 7-16 (inferred)

IC50 (hu-IL-2Rβ subunit): < 100 µM
B7: SEQ ID NO 160 (peptide)
peptide: WYPCWMAQLGELCDLDAGARHL

IC50 (hu-IL-2Rβ subunit): < 100 µM
B8: SEQ ID NO 84 (peptide)
peptide: QDEAVEWFPCWMARLGELCDLE

IC50 (hu-IL-2Rβ subunit): < 100 µM
B9: SEQ ID NO 128 (peptide)
peptide: NNSREGWFPCWLAKLGDLCDLD

IC50 [1]: < 10 µM
IC50 [2]: < 100 µM
B10: SEQ ID NO 653 (peptide)
peptide: DVVCQNWEGVDLCWH
modifications: not checked

IC50 (hu-IL-2Rβ subunit): < 100 µM
B11: SEQ ID NO 169 (peptide)
peptide: RDQYYPCWMAQLGELCDLDEVF

IC50 [1]: < 10 µM
IC50 [2]: < 100 µM
B12: SEQ ID NO 660 (peptide)
peptide: IVCEDWRGVELCWI
modifications: not checked

IC50 (hu-IL-2Rβ subunit): < 100 µM
B13: SEQ ID NO 126 (peptide)
peptide: RQAWYPCWMAQLGELCDLEAEL

IC50 (hu-IL-2Rβ subunit): < 100 µM
B14: SEQ ID NO 149 (peptide)
peptide: VRPMGVWYPCWIAQLGELCDLV

IC50 (hu-IL-2Rβ subunit): < 100 µM
B15: SEQ ID NO 155 (peptide)
peptide: GTTWYPCWLAQLGELCDLDVLE

IC50 (hu-IL-2Rβ subunit): < 100 µM
B16: SEQ ID NO 154 (peptide)
peptide: IGSWWPCWMAQLGELCDLEPEL

IC50 (hu-IL-2Rβ subunit): < 100 µM
B17: SEQ ID NO 153 (peptide)
peptide: WYPCWMAQLGELCDLDESTRLT
modifications: disulfide 4-13 (inferred)

IC50 (hu-IL-2Rβ subunit): < 100 µM
B18: SEQ ID NO 86 (peptide)
peptide: SVVVNNWLPCWMAQLGELCDLD

IC50 [1]: < 10 µM
IC50 [2]: < 100 µM
B19: SEQ ID NO 645 (peptide)
peptide: VECQEWGGVELCWC
modifications: not checked

IC50 (hu-IL-2Rβ subunit): < 100 µM
B20: SEQ ID NO 171 (peptide)
peptide: WYPCWIARLGELCDLETSGGFP

IC50 [1]: < 10 µM
IC50 [2]: < 100 µM
B21: SEQ ID NO 657 (peptide)
peptide: DVVCQNWDGVDLCWH
modifications: not checked

IC50 (hu-IL-2Rβ subunit): < 100 µM
B22: SEQ ID NO 129 (peptide)
peptide: YYPCWMAQLGELCDLE

IC50 (hu-IL-2Rβ subunit): < 100 µM
B23: SEQ ID NO 140 (peptide)
peptide: AKGWDTWKPCWLANLGELCDLE

IC50 [1]: < 10 µM
IC50 [2]: < 100 µM
B24: SEQ ID NO 652 (peptide)
peptide: VVCQDWEGVELCWQ
modifications: not checked

IC50 (hu-IL-2Rβ subunit): < 100 µM
B25: SEQ ID NO 180 (peptide)
peptide: WYPCHMAKLRELCDLD

IC50 (hu-IL-2Rβ subunit): < 100 µM
B26: SEQ ID NO 166 (peptide)
peptide: WYPCWMAQLGELCDLDDHWPAM

IC50 (hu-IL-2Rβ subunit): < 100 µM
B27: SEQ ID NO 141 (peptide)
peptide: RDESAGYYPCWIAQLGELCDLE

IC50 (hu-IL-2Rβ subunit): < 100 µM
B28: SEQ ID NO 165 (peptide)
peptide: YLPCWMAHLGELCDLDSPLKAR

IC50 [1]: < 10 µM
IC50 [2]: < 100 µM
B29: SEQ ID NO 656 (peptide)
peptide: DWRRSVVECQDWYGVELCWQ
modifications: not checked

IC50 [1]: < 10 µM
IC50 [2]: < 100 µM
B30: SEQ ID NO 644 (peptide)
peptide: TANQTVVECQVWGGVELCWQ
modifications: not checked

IC50 (hu-IL-2Rβ subunit): < 100 µM
B31: SEQ ID NO 163 (peptide)
peptide: RVTWYPCWMAQLGELCDLEESV

IC50 (hu-IL-2Rβ subunit): < 100 µM
B32: SEQ ID NO 161 (peptide)
peptide: KSGWYPCWMAKLGELCDLEAQP

IC50 (hu-IL-2Rβ subunit): < 100 µM
B33: SEQ ID NO 172 (peptide)
peptide: SGHCYPCWLAGLGELCDLNCG

IC50 (hu-IL-2Rβ subunit): < 100 µM
B34: SEQ ID NO 132 (peptide)
peptide: KMHKAVWLPCWMAQVGELCDLE

IC50 (hu-IL-2Rβ subunit): < 100 µM
B35: SEQ ID NO 164 (peptide)
peptide: WLPCWMAQLGDLCDLEQYVPLP

IC50 [1]: < 10 µM
IC50 [2]: < 100 µM
B36: SEQ ID NO 650 (peptide)
peptide: SAPERWVECEDWQGVELCWV
modifications: not checked

IC50 (hu-IL-2Rβ subunit): < 100 µM
B37: SEQ ID NO 135 (peptide)
peptide: KLQSWRWYPCWMAQLGELCDLD

IC50 (hu-IL-2Rβ subunit): < 100 µM
B38: SEQ ID NO 159 (peptide)
peptide: RGMCYPCWFARLGELCDLECDQ

IC50 (hu-IL-2Rβ subunit): < 100 µM
B39: SEQ ID NO 181 (peptide)
peptide: SLPCWMAQLGDLCELH

IC50 (hu-IL-2Rβ subunit): < 100 µM
B40: SEQ ID NO 150 (peptide)
peptide: VPRWYPCWIAQLGELCDLDSDD

IC50 (hu-IL-2Rβ subunit): < 100 µM
B41: SEQ ID NO 124 (peptide)
peptide: NGAWYPCWMAQVGELCDLEERW

IC50 (hu-IL-2Rβ subunit): < 100 µM
B42: SEQ ID NO 131 (peptide)
peptide: SWHAETWYPCWLAQVGELCDLD

IC50 (hu-IL-2Rβ subunit): < 100 µM
B43: SEQ ID NO 162 (peptide)
peptide: GPRFYPCWIAQLGELCDLEDMG

IC50 (hu-IL-2Rβ subunit): < 100 µM
B44: SEQ ID NO 168 (peptide)
peptide: WYPCWMANLGELCDLEAERSPV

IC50 (hu-IL-2Rβ subunit): < 100 µM
B45: SEQ ID NO 167 (peptide)
peptide: WYPCWRAQLGELCDLDPPIAVE

IC50 [1]: < 10 µM
IC50 [2]: < 100 µM
B46: SEQ ID NO 654 (peptide)
peptide: SAGRQEVVCQDWNGVELCWI
modifications: not checked

IC50 [1]: < 10 µM
IC50 [2]: < 100 µM
B47: SEQ ID NO 647 (peptide)
peptide: IVCEEWRGVELCWL
modifications: not checked

IC50 (hu-IL-2Rβ subunit): < 100 µM
B48: SEQ ID NO 85 (peptide)
peptide: YYPCWMARLGELCDLD

IC50 (hu-IL-2Rβ subunit): < 100 µM
B49: SEQ ID NO 179 (peptide)
peptide: WFPCWMAQLGEVCDLD

IC50 (hu-IL-2Rβ subunit): < 100 µM
B50: SEQ ID NO 136 (peptide)
peptide: NEPEGGFYPCWLAQLGELCDLH
modifications: disulfide 10-19 (inferred)

IC50 (hu-IL-2Rβ subunit): < 100 µM
B51: SEQ ID NO 158 (peptide)
peptide: WYPCWMANLGELCDLEYPSWAQ

IC50 (hu-IL-2Rβ subunit): < 100 µM
B52: SEQ ID NO 157 (peptide)
peptide: WYPCWMAQLGELCDLGPTESNL

IC50 [1]: < 10 µM
IC50 [2]: < 100 µM
B53: SEQ ID NO 639 (peptide)
peptide: PEGREVVVCRDWYGVELCWQ
modifications: not checked

IC50 [1]: < 10 µM
IC50 [2]: < 100 µM
B54: SEQ ID NO 640 (peptide)
peptide: IWGRTVVECQDWEGVELCWQ
modifications: not checked

IC50 [1]: < 10 µM
IC50 [2]: < 100 µM
B55: SEQ ID NO 648 (peptide)
peptide: DFERSYVVCQDWDGVELCWI
modifications: not checked

IC50 [1]: < 10 µM
IC50 [2]: < 100 µM
B56: SEQ ID NO 638 (peptide)
peptide: IECEEWRGVELCWQ
modifications: not checked

IC50 [1]: < 10 µM
IC50 [2]: < 100 µM
B57: SEQ ID NO 662 (peptide)
peptide: GDRPKEVVCEDWKGVELCWI
modifications: not checked

IC50 (hu-IL-2Rβ subunit): < 100 µM
B58: SEQ ID NO 146 (peptide)
peptide: WYPCWMAQPGELCDVD

IC50 (hu-IL-2Rβ subunit): < 100 µM
B59: SEQ ID NO 83 (peptide)
peptide: WQREWRWFPCWMAKLGDMCDLD

IC50 [1]: < 10 µM
IC50 [2]: < 100 µM
B60: SEQ ID NO 658 (peptide)
peptide: TLGRTVVECQDWGGVELCWQ
modifications: not checked

IC50 (hu-IL-2Rβ subunit): < 100 µM
B61: SEQ ID NO 178 (peptide)
peptide: VRAWYPCWIARLGELCDLEVD
